Measurements published in patent US20210070875A1.

Columns and labels:
Experiment in all cases: ELISA, polypeptide coated at 1.0 µg/mL
C5aR polypeptide-04 = C5aR polypeptide-04 (UniProt P21730)
[1] = target: C5aR extracellular N-terminus polypeptide (UniProt P21730)
C5aR polypeptide-05 = C5aR polypeptide-05 (UniProt P21730)
C5aR polypeptide-03 = C5aR polypeptide-03 (UniProt P21730)

| OD450 nm (C5aR polypeptide-04) | OD450 nm [1] | OD450 nm (C5aR polypeptide-05) | OD450 nm (C5aR polypeptide-03) | Binder |
| --- | --- | --- | --- | --- |
| 0.1 OD450 nm | 0.12 OD450 nm | 0.06 OD450 nm | 0.08 OD450 nm | 43E8F5B6 (antibody, V domains shown) VH: EVQLQQSGPELVKPGASVKISCKASGYTFTDYYMSWMKQSHGKSLEWIGDINPNNGDNIYNQKFKGKATLTVDRSSSTAYMDLRSLTSEDSAVYYCARWYYYVSSFSYWYFDVWGTGTTVTVSS VL: EIVLTQSPTTMAASPGEKITITCSATSSINSNYLHWYQQKPGFSPKLLIYRTSNLASGVPARFSGSGSGTSYSLTIGTMEAEDVATYYCQQGRTIPRTFGSGTKLEIK |
| 2.52 OD450 nm | 0.22 OD450 nm | 0.56 OD450 nm | 0.31 OD450 nm | 5F8E2C11 (antibody, V domains shown) VH: QVQLRQSGPGLVQPSQSLSITCTVSGFSLTSYGVHWVRQSPGKGLEWLGVIWSGGSTDYNAAFISRLSISKDYSKSQIFLTMNSLQTDDTAIYYCARNSRLGNCFDYWGQGTTLTVSS VL: DIVMSQSPSSLAVSAGEKVTMSCKSSQSLLNSRTRKNYLAWYQQKPGQSPKLLIYWASTRESGVPDRFTGSGSGTDFTLTISSVQAEDLAVYYCKQSYNLPAFGGGTKLEIK |
| 2.46 OD450 nm | 0.06 OD450 nm | 0.41 OD450 nm | 0.06 OD450 nm | 9D5A12G7 (antibody, V domains shown) VH: QVQLKQSGPGLVQPSQSLSITCTVSGFSLTSYGVHWVRQSPGKGLEWLGVIWSGGSTDYNAAFISRLSISKDNSKSQVFFKMNSLQADDTAIYYCARNGLLGNAMDYWGQGTSVTVSS VL: DIVMSQSPSSLAVSAGEKVTMSCKSSQSLLSSRTRKNYLAWYQQKPGQSPKLLIYWASTRESGVPDRFTGSGSGTDFTLTISSVQTEDLAVYYCKQSYNLLTFGAGTTLELK |
| 2.34 OD450 nm | 0.05 OD450 nm | 0.29 OD450 nm | 0.06 OD450 nm | 2A12B2B2 (antibody, V domains shown) VH: QVQLQQPGADLVKPGASVKMSCKASGYILTTYWITWVKQRPGQGLEWIGDIHPGSGSTKYNEKFKSKATLTVDTSSSTAYMQLTRLSSEDSAVYYCARRDYWGQGTTLTVSS VL: DIQMTQTTSSLSASLGDKVTISCRASQDISNYLSWYQQKPDGTVKLLIYWISRLHSGVPSRFSGSGSGTDFSLTISNLEQEDIATYFCQQGNSLPPTFGGGTKLEVK |
| 0.1 OD450 nm | 2.5 OD450 nm | 0.08 OD450 nm | 0.05 OD450 nm | 8B5D1A9 (antibody, V domains shown) VH: QVQLKQSGAELVKPGASVKISCKTSGYIFTDYYINWMKQRPGQGLEWIGKIGPGSGTTFYNEKFKGKATLTADKSSTTLYMQLSSLTAEDSAVYFCTRRGYYSSSYFYWGQGTTLTVSS VL: DIVMTQSPSSLSVSAGEKVIMSCKSSQSLLNSERQKNYLAWYQQKPGQSPKLLIYGASTRESGVPDRFTGSGSGTDFTLTISSVQAEDLAVYYCLNDHSYPLTFGAGTKLELK |
